Our source for the stoichiometry N values is paper PMC5904407.

The target in assay [1] is Full-length LapA (FL-LapA; residues 1 to 378), minus N-terminal signal sequence (Legionella pneumophila strain 130b). The experiment in a line: crystal structure.
Assay [2] concerns the target Full-length NttD (FL-NttD; residues 1 to 373), minus N-terminal signal sequence (Legionella pneumophila strain 130b). In words: SEC.

In turn, “Full-length LapA (FL-LapA; residues 1 to 378), minus N-terminal signal sequence (enzyme)” showed a stoichiometry N in assay [1] of 2.

In assay [2], “Full-length NttD (FL-NttD; residues 1 to 373), minus N-terminal signal sequence (natural protein)” had a stoichiometry N of 2.

For orientation: stoichiometry N means a count of units in the complex or per binding partner.
